Assay results taken from PMC4399976 (The Biochemical journal, 2015).

Biological target: wild-type (WT) proMMP-9 trimer (reduction-sensitive homomultimer) (human, UniProt P14780 20-707)
Assay: SPR

Chain of wild-type (WT) proMMP-9 trimer (reduction-sensitive homomultimer) (P14780 20-707): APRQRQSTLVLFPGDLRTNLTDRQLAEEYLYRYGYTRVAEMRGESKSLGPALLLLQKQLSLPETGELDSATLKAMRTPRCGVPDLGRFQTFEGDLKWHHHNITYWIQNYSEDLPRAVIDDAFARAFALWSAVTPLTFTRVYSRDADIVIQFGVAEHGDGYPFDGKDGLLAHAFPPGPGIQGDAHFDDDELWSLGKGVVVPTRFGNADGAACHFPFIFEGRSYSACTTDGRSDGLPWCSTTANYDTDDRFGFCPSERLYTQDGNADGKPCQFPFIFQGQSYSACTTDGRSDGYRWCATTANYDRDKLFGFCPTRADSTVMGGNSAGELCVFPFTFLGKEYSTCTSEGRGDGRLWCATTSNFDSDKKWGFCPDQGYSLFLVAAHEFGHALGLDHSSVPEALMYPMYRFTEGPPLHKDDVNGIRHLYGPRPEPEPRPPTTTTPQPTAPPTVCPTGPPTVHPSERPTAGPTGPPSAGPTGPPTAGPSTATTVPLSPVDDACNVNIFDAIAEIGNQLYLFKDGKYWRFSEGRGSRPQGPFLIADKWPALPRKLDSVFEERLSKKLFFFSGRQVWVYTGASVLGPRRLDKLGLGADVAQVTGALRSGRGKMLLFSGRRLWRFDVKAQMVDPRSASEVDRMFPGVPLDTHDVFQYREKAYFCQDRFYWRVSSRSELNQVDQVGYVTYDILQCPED

B1: tissue inhibitor of metalloproteinases-1 (TIMP-1), recombinant human (natural protein)
chain: not shown
B1 was tested, and the Kd was 400 pM.
